# Test results: US10577428B2, “Anti-factor XI monoclonal antibodies and methods of use thereof” (Oregon Health & Science University, priority 2007, dated 2020)
# Experiments:
# FXI [1] = assay: FXI clotting assay in vitro (FXI deficient human plasma, NBP dilutions as standards); type: biochemical, baboon; conditions: serial dilutions of NBP as standards
# FXI [2] = assay: Pilot experiment: FXI:Ag, FXI inhibitor and FXI procoagulant activity after aXIMab in a single baboon; type: in vivo
# Method: (§1) The maximum achievable prolongation of the aPTT was about 2.5 fold. FXI:Ag was measured by ELISA using goat anti-human FXI polyclonal capture and detection (horseradish peroxidase conjugated [HRP]) antibodies (Affinity Biologicals, Hamilton, Ontario), which also recognized baboon FXI and its complex with aXIMab. A standard curve was constructed with serial dilutions of NBP, and FXI concentrations were determined in percentage of NBP. Western blots for FXI were performed by size fractionation of 1 μl samples of plasma under non-reducing conditions on 7.5% polyacrylamide-SDS gels, followed by transfer to PVDF membranes. Detection was with a goat-anti-human FXI polyclonal antibody conjugated to HRP and chemiluminescence.
# baboons (Papio anubis) = assay: Thrombosis model, collagen coated 4 mm i.d. vascular grafts in AV shunt: platelet and fibrin deposition; type: in vivo, baboon (Papio anubis)
# Method: A total of 39 non-terminal studies were performed on 17 normal juvenile male baboons (Papio anubis) weighing 9-11 kg. Experiments were conducted on non-anticoagulated awake animals that had chronic exteriorized arterio-venous (AV) shunts previously placed between the femoral artery and vein, as described elsewhere (Hanson et al. (1993) J. Clin. Invest. 92:2003-2012). Baseline shunt blood flow exceeded 250 ml/min in all study animals. Anxiety was managed with low dose ketamine (<2 mg/kg/hr). Platelet counts, red cell counts, and hematocrits were measured daily, before and after the experiments.
# Thrombus formation was initiated within the baboon AV shunt by interposing a thrombogenic segment of prosthetic vascular graft (ePTFE, WL Gore & Co., Flagstaff, Ariz.), as previously described (Hanson et al. (1993) J. Clin. Invest. 92:2003-2012). To consistently trigger platelet-dependent thrombus formation, the clinical graft segments were coated with immobilized collagen. Twenty mm long grafts having internal diameters (i.d.) of either 2 or 4 mm were filled with equine type I collagen (1 mg/ml; Nycomed Arzenmittel, Munich, Germany) for 15 min, and then dried overnight under sterile airflow. This method produced a uniform collagen coating within the graft lumen as determined by scanning electron microscopy (FIGS. 1B and 1C). The thrombogenic collagen-coated grafts were then incorporated between segments of silicon rubber tubing, and deployed into the AV shunts (FIG. 1A). The grafts were exposed to blood for up to 60 min. During each experiment, the blood flow rate through the graft was restricted to 100 ml/min by clamping the proximal silicone rubber shunt segment, thereby producing a mean wall shear rate (MWSR) in the 4 mm grafts of 265 s^−1, while in the 2 mm grafts the initial MWSR was 2120 s^−1. Flow rates were continuously monitored using an ultrasonic flow meter (Transonics Systems, Ithaca, N.Y.). […] Baseline blood flow was restored through the permanent shunt after each experiment. In the 2 mm diameter grafts blood flow rates progressively declined due to thrombus formation. The grafts were removed from the AV shunts when the flow rate fell from 100 ml/min to below 20 ml/min, signaling imminent occlusion. The time from initiation of blood flow to graft removal (<20 ml/min blood flow) was taken as the occlusion time.
# For imaging of the platelet deposition, autologous baboon platelets were labeled with 1 mCi of ^111In-oxine as previously described (Hanson et al. (1993) J. Clin. Invest. 92:2003-2012). Labeled platelets were infused and allowed to circulate for at least 1 h before studies were performed. Accumulation of labeled platelets onto thrombogenic grafts were measured in 5-min intervals using a gamma scintillation camera. Homologous ^125I-labeled baboon fibrinogen (4 μCi, >90% clottable) was infused 10 min before each study, and incorporation of the labeled fibrin within the thrombus was assessed using a gamma counter 30 days later to allow the ^111In to decay. The radioactivity deposited (cpm) was divided by the clottable fibrin(ogen) radioactivity of samples taken at the time of the original study (cpm/mg).
# [3] = tested on: normal human plasma (NHP); assay: aPTT and PT in normal human plasma in vitro; type: biochemical; conditions: 0-40 nM
# [4] = tested on: normal baboon plasma (NBP); assay: aPTT and PT in normal baboon plasma in vitro; type: biochemical; conditions: 0-40 nM
# FXI [5] = assay: FXI procoagulant activity, aPTT and PT after single i.v. bolus in baboons; type: in vivo, baboon
# Method: as §1
# The anticoagulant effect (aPTT) was monitored daily, and thrombosis experiments were performed while the FXI procoagulant activity in the circulating blood was reduced by ≥99%, as assessed by comparing the clotting times to a standard curve generated with FXI deficient human plasma (George King Bio-Medical).
# baboons = assay: Standard template skin bleeding time test (Surgicutt); type: in vivo, baboon
# Method: The effects of FXI inhibition and aspirin on primary hemostasis in baboons were assessed using the standard template skin bleeding time test (Surgicutt®, International Technidyne Corp). […] All bleeding time measurements were performed by the same expert technician. For indirect assessment of hemostasis, aPTT and PT measurements were also performed.
# [6] = tested on: recombinant FXI proteins with mutations within the A3 domain; assay: Western blot binding to recombinant FXI A3 domain alanine mutants; design: species or system human; conditions: 2 or 3 adjacent amino acids replaced with Alanine (FIG. 11)
# Method: Binding studies were also conducted using recombinant FXI proteins involving mutations of different amino acids within the A3 domain to determine amino acids important for the binding of monoclonal antibody 1A6. An example of the binding of monoclonal antibody 1A6 to a panel of 25 such recombinant proteins in which 2 or 3 adjacent amino acids within the A3 domain were replaced with Alanine is shown in FIG. 11. […] Based on such studies, amino acids important for the binding of monoclonal antibody 1A6 to the FXI A3 domain were determined, and are shown in FIG. 12 (amino acids 183 to 197, 203 to 204, 234 to 236, 241 to 243, 252 to 254, and 258 to 260 of SEQ ID NO:1).
molecule,measurement,setting,value
"aXIMab: neutralizing murine IgG/kappa anti-human FXI monoclonal antibody from hybridoma 1A6; binds A3 domain; VH SEQ ID NO:3, VL SEQ ID NO:5 (antibody, listed as Mus musculus, V domains shown) VH: QVTLKESGPGILKPSQTLSLTCSFSGFSLSTSGMGVGWIRQPSGKGLEWLAHIWWDDDKYYNPSLKSQLTISKDTSRNQVFLKITSVDAADTATYYCARKRSSVVAHYYAMDYWGQGTSVTVSS VL: DIVLTQSPASLAVSLGQRATISCKASQSVDYDGDSYLNWYQQKPGQPPKLLIYAASNLESGIPARFSGSGSGTDFTLNIHPVEEEDAATYYCQQSNGDPWTFGGGTKLEIK",IC99,FXI [1],10 nM
same,FXI:Ag levels,"FXI [2]; 1 h after 2 mg/kg, single baboon, baseline 110%",40 % of NBP levels
same,FXI activity,"FXI [2]; 1 h after 2 mg/kg, single baboon, baseline 125%",< 1%
same,Maximum circulating FXI inhibitor levels (Bethesda assay),"FXI [2]; 1 h post infusion, 2 mg/kg, single baboon",72 Bethesda units [BU]
same,circulating FXI inhibitor levels (Bethesda assay),"FXI [2]; by day 15, 2 mg/kg, single baboon",< 0.6 BU
same,FXI:Ag levels,"FXI [2]; day 8 post-infusion, 2 mg/kg, single baboon",300 % of control
same,FXI activity,"FXI [2]; day 27, 2 mg/kg, single baboon",136%
same,Plasma FXI antigen,"FXI [2]; day 27, 2 mg/kg, single baboon",130%
same,total FXI:Ag levels,FXI [2]; following the disappearance of FXI activity,temporarily increased several-fold above baseline
same,FXI activity inhibited,"FXI [2]; for 10 days after administration, 2 mg/kg, single baboon",> 99%
same,free FXI:Ag,FXI [2]; for over a week following injection,< 1%
same,maximum achievable prolongation of the aPTT,FXI [2]; in vivo,about 2.5 fold
same,Plasma FXI antigen,"FXI [2]; through day 15, 2 mg/kg, single baboon",above 200 % of control
same,End-point fibrin deposition reduced compared with controls,baboons (Papio anubis); 4 mm graft,81%
same,End-point fibrin deposition,"baboons (Papio anubis); 4 mm graft, control 1.18±0.19",0.23 ± 0.07 mg
same,platelet accumulation,"baboons (Papio anubis); 10 min after graft exposure, 4 mm graft, control 0.23±0.03",0.13±0.03 ×10^9 platelets
same,Graft platelet accumulation lower than in vehicle controls,"baboons (Papio anubis); 60 min, 4 mm graft",63%
same,Graft platelet accumulation,"baboons (Papio anubis); 60 min, 4 mm graft, n=6, control 3.68±0.52",1.38±0.26 ×10^9 platelets
same,"Systemic platelet counts, change following thrombosis experiments",baboons (Papio anubis); in vivo,did not change significantly
same,Systemic platelet counts,"baboons (Papio anubis); prior to thrombosis studies, control 337±31",341±27 ×10^3/μl
same,prothrombin time (PT),[3],without affecting
same,activated partial thromboplastin time (aPTT),[3]; concentration-dependent,prolonged
same,prothrombin time (PT),[4],without affecting
same,activated partial thromboplastin time (aPTT),[4]; concentration-dependent,prolonged
same,day by which all clotting times normalized,"FXI [5]; 2 mg/kg i.v. bolus, one-stage clotting assay",≤ 11 days
same,FXI procoagulant activity inhibited,"FXI [5]; 1 hr after infusion, 2 mg/kg i.v. bolus, 4 baboons, range 98.8-99.5%",99.0%
same,PT,"FXI [5]; after aXIMab administration, n=11, PBS vehicle 9.0±0.1 sec",9.1 ± 0.1 s
same,aPTT,"FXI [5]; after aXIMab administration, control 30.5±0.7 sec",65.6 ± 2.0 s
same,"PT, differences between groups",FXI [5]; all baboons,no differences
same,effect on bleeding time / hemostasis,"baboons; FIG. 6, compared with no treatment controls",did not demonstrably impair hemostasis
same,standard template bleeding time,baboons; vehicle-treated controls 3.4±0.2 min,3.5 ± 0.3 min
same,binding to FXI A3 domain mutants,[6],did not bind to some mutants
